Paper PMC7505474 (2020)

Target: Recombinant TLR4 protein (R&D Systems 478-TR-050) (UniProt O00206 24-631)
Test: SPR

Chain of Recombinant TLR4 protein (R&D Systems 478-TR-050) (O00206 24-631): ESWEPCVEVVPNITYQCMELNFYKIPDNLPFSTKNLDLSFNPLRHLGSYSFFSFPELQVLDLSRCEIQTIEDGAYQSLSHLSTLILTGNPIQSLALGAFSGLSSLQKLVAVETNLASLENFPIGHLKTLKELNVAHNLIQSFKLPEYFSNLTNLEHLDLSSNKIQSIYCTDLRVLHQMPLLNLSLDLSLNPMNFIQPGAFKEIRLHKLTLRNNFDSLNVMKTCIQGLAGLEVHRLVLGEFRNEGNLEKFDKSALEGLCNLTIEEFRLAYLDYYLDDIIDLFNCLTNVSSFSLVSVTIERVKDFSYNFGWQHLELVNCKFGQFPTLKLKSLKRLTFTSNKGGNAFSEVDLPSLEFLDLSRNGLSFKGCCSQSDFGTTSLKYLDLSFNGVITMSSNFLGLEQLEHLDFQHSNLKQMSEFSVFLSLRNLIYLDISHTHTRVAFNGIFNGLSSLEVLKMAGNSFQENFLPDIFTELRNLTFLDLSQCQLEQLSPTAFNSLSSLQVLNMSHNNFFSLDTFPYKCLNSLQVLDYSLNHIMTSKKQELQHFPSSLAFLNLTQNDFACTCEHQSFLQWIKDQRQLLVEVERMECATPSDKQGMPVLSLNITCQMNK

B1: human recombinant IFI16 protein (natural protein)
chain: MGKKYKNIVLLKGLEVINDYHFRMVKSLLSNDLKLNLKMREEYDKIQIADLMEEKFRGDAGLGKLIKIFEDIPTLEDLAETLKKEKLKVKGPALSRKRKKEVDATSPAPSTSSTVKTEGAEATPGAQKRKKSTKEKAGPKGSKVSEEQTQPPSPAGAGMSTAMGRSPSPKTSLSAPPNSSSTENPKTVAKCQVTPRRNVLQKRPVIVKVLSTTKPFEYETPEMEKKIMFHATVATQTQFFHVKVLNTSLKEKFNGKKIIIISDYLEYDSLLEVNEESTVSEAGPNQTFEVPNKIINRAKETLKIDILHKQASGNIVYGVFMLHKKTVNQKTTIYEIQDDRGKMDVVGTGQCHNIPCEEGDKLQLFCFRLRKKNQMSKLISEMHSFIQIKKKTNPRNNDPKSMKLPQEQRQLPYPSEASTTFPESHLRTPQMPPTTPSSSFFTKKSEDTISKMNDFMRMQILKEGSHFPGPFMTSIGPAESHPHTPQMPPSTPSSSFLTTLKPRLKTEPEEVSIEDSAQSDLKEVMVLNATESFVYEPKEQKKMFHATVATENEVFRVKVFNIDLKEKFTPKKIIAIANYVCRNGFLEVYPFTLVADVNADRNMEIPKGLIRSASVTPKINQLCSQTKGSFVNGVFEVHKKNVRGEFTYYEIQDNTGKMEVVVHGRLTTINCEEGDKLKLTCFELAPKSGNTGELRSVIHSHIKVIKTRKNKKDILNPDSSMETSPDFFF
B1 gave a koff of 0.00576 s⁻¹.
